Assay results taken from the RNAGym collection of RNA variant scans (doi:10.7554/elife.80360).

B1: HDV Ribozyme (parent)
chain: GGCCGGCAUGGUCCCAGCCUCCUCGCUGGCGCCGGCUGGGCAACAUUCCGAGGGGACCGUCCCCUCGGUAAUGGCGAAUGGGACCCA

Variants of: B1
Assay: self-cleavage, relative activity (ratio to wild type); higher = more cleavage; co-transcriptional

Row | Variant | self-cleavage
1 | GGCCGGCAUGGUCCCAGCCUCCUCGCUGGCGCCGGCUCGGCAACAUUCCGAGGGGACCGUCCCCUCGGUAAUGGCGAAUAGGACCCA [G38C G80A] | 0.131
2 | GGCCGGCAUGGUUCCAGCCUCCUCGCUGGCGCCGGCUGGGCAACAUUCCGAGGGGACCGUCCCCUCCGUAAUGGCGAAUGGGACCCA [C13U G67C] | 0.374
3 | GGCCGGCAUGGUCCCAGCCUCCUCGCUGGCGCCGGCUGGGCAACAUUCCGAGGGGACCGUCGCCUCGGUGAUGGCGAAUGGGACCCA [C62G A70G] | 0.578
4 | GGCCGGCAUGGUCCCAGACUCCUCGCUGGCGCCGGCUGGGCAAUAUUCCGAGGGGACCGUCCCCUCGGUAAUGGCGAAUGGGACCCA [C18A C44U] | 0.219
5 | GGCCGGCAUGGUCCCAGCCUCCUCGCUGGCGCCGGCUGCGCAACAUUCCGAGGGGACCGUCCCCUCGGUAAUGGCGAAUGGGAACCA [G39C C84A] | 0.19
6 | GGCCGGCAUGGUCCCAGCCUCCUCGCUGGCGCCGGCUGGGCAACAUCCCGAGGGGACUGUCCCCUCGGUAAUGGCGAAUGGGACCCA [U47C C58U] | 0.752
7 | GGCCGGCAUGGUCCCACCCUCCUCGCUAGCGCCGGCUGGGCAACAUUCCGAGGGGACCGUCCCCUCGGUAAUGGCGAAUGGGACCCA [G17C G28A] | 0.0449
8 | GGCCUGCAUGCUCCCAGCCUCCUCGCUGGCGCCGGCUGGGCAACAUUCCGAGGGGACCGUCCCCUCGGUAAUGGCGAAUGGGACCCA [G5U G11C] | 0
9 | GGCCGGCAUGGUCCCAGCCUCCUCGCUGGCGCCGGCUGGUCAACAUUCCGAGGGGACCCUCCCCUCGGUAAUGGCGAAUGGGACCCA [G40U G59C] | 0.76
10 | GGCCGGCAUUGUCCCAGCCUCCUCGCUGGCGCCGGCUGGGCAACACUCCGAGGGGACCGUCCCCUCGGUAAUGGCGAAUGGGACCCA [G10U U46C] | 0.352
11 | GGCCGGCAUGGUCUCAGCCUCCUCGCUGGCGCCGGCUGGGCAACAUUCAGAGGGGACCGUCCCCUCGGUAAUGGCGAAUGGGACCCA [C14U C49A] | 1.37
12 | GGCCGGCAUGGUACCAGCCUCCUCCCUGGCGCCGGCUGGGCAACAUUCCGAGGGGACCGUCCCCUCGGUAAUGGCGAAUGGGACCCA [C13A G25C] | 0.0773
13 | GGCCGGUAUGGUCCCAGCCUCCUCGCUGGCGCCGGCUGGGCAACAUUUCGAGGGGACCGUCCCCUCGGUAAUGGCGAAUGGGACCCA [C7U C48U] | 0.997
14 | GGCCGGCAUGGUCCCAGCCUCCUCGCUGGCGCCGGCUGGGGAACAUUCCGAGGGGACCAUCCCCUCGGUAAUGGCGAAUGGGACCCA [C41G G59A] | 0.758
15 | GGCCGGCAUGGUCCCAGCCUCCUCGCUGGCGCCAGCUGGGCAACAUUCCGAGUGGACCGUCCCCUCGGUAAUGGCGAAUGGGACCCA [G34A G53U] | 0.17
16 | GGCCGGCAUGGUCUCAGCCACCUCGCUGGCGCCGGCUGGGCAACAUUCCGAGGGGACCGUCCCCUCGGUAAUGGCGAAUGGGACCCA [C14U U20A] | 0.145
17 | GGCCGGCAUGGUCCCAGCCUCCUCGCUGGCGCCGGCUGGGCAACAUUCCGAGGGGACCAUCGCCUCGGUAAUGGCGAAUGGGACCCA [G59A C62G] | 0.502
18 | GGCCGGCAUGGUCCCAGCCUCCUCGCUGGCGCCGGCUGGGCAGCAUUCCGAGGGGACCGUCCCCUCGGUAAUGGCGAAUGGGACCCU [A43G A87U] | 0.554
19 | GGCCGGCAUGGUCCCAGGCUCCUCGCUGGCGCCGGCUGGGCAACAUUCCGAGGGGACCGUCCCCUCGGUAAUGGCGAAUGGGACCGA [C18G C86G] | 0.0831
20 | GGCCGGCAUUGUCCCAGCCUCCUCGCUGGCGCCGGCUGGGGAACAUUCCGAGGGGACCGUCCCCUCGGUAAUGGCGAAUGGGACCCA [G10U C41G] | 0.619
21 | GGCCGGCAUGGUCCCAGCCUCCUCGCUGGCUCCGGCUGGGCAUCAUUCCGAGGGGACCGUCCCCUCGGUAAUGGCGAAUGGGACCCA [G31U A43U] | 0.149
22 | GGCCGGCAUGGUCCCAGCCUCCUCGCUGGCGCCGGCUGGGCAACAAUCCCAGGGGACCGUCCCCUCGGUAAUGGCGAAUGGGACCCA [U46A G50C] | 0.597

Row | Variant | self-cleavage
23 | GGCCGACAUGGUCCCAGCCUCCUCGCUGGCGCCGGCUGGGCCACAUUCCGAGGGGACCGUCCCCUCGGUAAUGGCGAAUGGGACCCA [G6A A42C] | 0.0831
24 | GGCCGGCAUGGUCCCAGCCUCCUCGCUGGCGCCGACUGGGCAACAUUCCGAGGGGACCGCCCCCUCGGUAAUGGCGAAUGGGACCCA [G35A U60C] | 0.554
25 | GGCCGGCAUGGUCCCAGCCUCCUCGCUGGCGCCGGCUGGGCAACAUUCUGAGGGGACCGUCCCCUCGGUAAUGGCGAAGGGGACCCA [C49U U79G] | 0.688
26 | GGCCGGCAUGGUCCCAGCCUCCUCGUUGCCGCCGGCUGGGCAACAUUCCGAGGGGACCGUCCCCUCGGUAAUGGCGAAUGGGACCCA [C26U G29C] | 0.0959
27 | GGCCGGCAUGGUCCCAGCCUCCUCGCUGGCGUCGGCUGGGCAACAGUCCGAGGGGACCGUCCCCUCGGUAAUGGCGAAUGGGACCCA [C32U U46G] | 0.646
28 | GGCCGGCAUGGUCCCAGCCUCCUCGCUGGCGCCGGCUGGGCAACAUUCCGAGGGGACAGUCCCCUCGUUAAUGGCGAAUGGGACCCA [C58A G68U] | 1.04
29 | GGCCGGCAUGGUCCCAGCCUCCUCGCUGGCGCCGGCUGGGCAACGUUCCGAGGGGACCGUCCCCUCGGUAAUGGCCAAUGGGACCCA [A45G G76C] | 1.07
30 | GGCCGGCAUGGUCCCAGCCUCCCCGCUGGCGCCGGCUGGGCAACAUUCCGAGGGGACCGUCCCCUCGGUACUGGCGAAUGGGACCCA [U23C A71C] | 0.415
31 | GGCCGGCAUGCUCCCAGCCUCCUCGCUGGCGCCGGCUGGGCAACAUUCCGAGGGGACCGUCCCCUCGGUAAUGCCGAAUGGGACCCA [G11C G74C] | 0
32 | GGCCGGCAUGGUCCCAGCCUCCUCGCUGGCCCCGGCUGGGCAACAUUCCGAGGGGACCGUCCCCUCGGUAAUGGCGAAUGGGACCCG [G31C A87G] | 0.226
33 | GGCCGGCAUGGUCCCAGCCUCCUCGCUGCCGCCGGCUGGGCAACAUUCCGACGGGACCGUCCCCUCGGUAAUGGCGAAUGGGACCCA [G29C G52C] | 0.208
34 | GGCCGGCAUGGUCCCAGCCUCCUCGCUGGCGCCGGCUGGGCAACAUUCCGAGGGGACCGUCCCUUCGGUAAUGGCGAAUGGGAGCCA [C64U C84G] | 0.869
35 | GGCCGGCAUGGUCCCAGCCUCCUCGCUGGCGCCGGCUGGGCAACAUUCCGAGCGGACCGUCCCCUCAGUAAUGGCGAAUGGGACCCA [G53C G67A] | 0.723
36 | GGCCAUCAUGGUCCCAGCCUCCUCGCUGGCGCCGGCUGGGCAACAUUCCGAGGGGACCGUCCCCUCGGUAAUGGCGAAUGGGACCCA [G5A G6U] | 0.0923
37 | GGGCGGCAUGGUCCCAGCCUCCUCGCUGGCGCCGGCUGGGGAACAUUCCGAGGGGACCGUCCCCUCGGUAAUGGCGAAUGGGACCCA [C3G C41G] | 0.241
38 | GGCCGGCAUGGUCCCAGCCUCCUCGCUGGCGCCGGCUGGGCAACUUUCCCAGGGGACCGUCCCCUCGGUAAUGGCGAAUGGGACCCA [A45U G50C] | 0.767
39 | GGCCGGCAUGGUCCCAGCCUCCUCGCUGGCGCCGGCUGGGCCACAUUCCGAGGGGACCGUCCCCUCGGUAAUGGCAAAUGGGACCCA [A42C G76A] | 0.113
40 | GGCCGGCAUGGUCCCAGCCUCCUCGCCGGCGCCGGCUGGGCAACAUUCCGAGGGGACCGUCCCCACGGUAAUGGCGAAUGGGACCCA [U27C U65A] | 0.957
41 | GGCCGGCAUGGUCCCAGCCUCCUCGCUGGCGGCGGCUGGGCAACAUUCCGAGGGGGCCGUCCCCUCGGUAAUGGCGAAUGGGACCCA [C32G A56G] | 0.0852
42 | GGCCGGCAUGGUCCCAGCCUCCUCGCUGGCGCCGGCUGGGCAACAUUCCGAGUGGACCGUCCCCUCGGAAAUGGCGAAUGGGACCCA [G53U U69A] | 0.969
43 | GGCCGGCCUGGUCCUAGCCUCCUCGCUGGCGCCGGCUGGGCAACAUUCCGAGGGGACCGUCCCCUCGGUAAUGGCGAAUGGGACCCA [A8C C15U] | 0.604
44 | GGCCGGCAAGGUCCCAGCCUCCUCGCUGGCGCCGACUGGGCAACAUUCCGAGGGGACCGUCCCCUCGGUAAUGGCGAAUGGGACCCA [U9A G35A] | 0.665

Row | Variant | self-cleavage
45 | GGCCGGCAUGGUCCCAGCCUCCUCGCUGGCGCCUGCUGGGCAACAUUCCGAGGGGACCGUCCCCUCGGUCAUGGCGAAUGGGACCCA [G34U A70C] | 0.17
46 | GGCCGGCAUGGUCCCAGCCUCAUCGCUGGCGCCGGCUGGGCAACAUCCCGAGGGGACCGUCCCCUCGGUAAUGGCGAAUGGGACCCA [C22A U47C] | 0
47 | GGCCGGCAUGGUCCCAGCCUCCUCGCUGGCGCCGGCUGGGCAACAUUCCGAGGGGACCGUCCCCUCGGUAAUGGCGAAUCGCACCCA [G80C G82C] | 0.166
48 | GUCCGGCAUGGUCCCAGCUUCCUCGCUGGCGCCGGCUGGGCAACAUUCCGAGGGGACCGUCCCCUCGGUAAUGGCGAAUGGGACCCA [G2U C19U] | 0.0155
49 | GGCCGGCAUGGUCCCAGCCACCUCGCUGGCGCCGGCUGGGCAACAUUCCGAGGGGACCGUCCCCUCAGUAAUGGCGAAUGGGACCCA [U20A G67A] | 0.0462
50 | GGCCGGCAUGGUCCCAGCCUCCUCGCUAGCGCCGGCUGGGCAACACUCCGAGGGGACCGUCCCCUCGGUAAUGGCGAAUGGGACCCA [G28A U46C] | 0.0594
51 | GGCCGGCAUGGUCCCAGCCACCUCGCUGGCGCCGGCUGGGCAACAUUCCGUGGGGACCGUCCCCUCGGUAAUGGCGAAUGGGACCCA [U20A A51U] | 0.104
52 | GGCCGGCAUGGUCCCAGCCUCCUCGCUGGCGCCGGCUGGGCAACAUUCCGAUGGGACCGUCCCCUUGGUAAUGGCGAAUGGGACCCA [G52U C66U] | 0.737
53 | GGCCGGCAUGGUCCCAGCCUCCUUGCUGGCGCCGGCUGGGCAACUUUCCGAGGGGACCGUCCCCUCGGUAAUGGCGAAUGGGACCCA [C24U A45U] | 0.489
54 | GGCCGGCAUGGUCCCAGCCUCCUCGCUGGCGCCGGCUCGGCAACAUUCCGAGGGGACCGUCCUCUCGGUAAUGGCGAAUGGGACCCA [G38C C63U] | 0.194
55 | GGCCGGCAUGGACCCAGCCUCCUCGCUGGCGCCGGCUGCGCAACAUUCCGAGGGGACCGUCCCCUCGGUAAUGGCGAAUGGGACCCA [U12A G39C] | 0.0594
56 | GGCCGGCAUGGUCCCAGCCUCCUCGUUGGCGCCGGCUGGGCAACAUUCCGAGGGGACCGUCCCCUCGGUAAUGGCGAACGGGACCCA [C26U U79C] | 0.671
57 | GGCCGGCAUGGUCGCAGCCUCCUCGCUGGCGCCGGCUGGGCAACAUUCCGAGGGGAACGUCCCCUCGGUAAUGGCGAAUGGGACCCA [C14G C57A] | 0.748
58 | UGCCGGCAUGGUCCCAGCCUCCUCGCUGGCGCCGGCUGGGCAACAUUCCGAGGGGACCGUCCCCUCGGAAAUGGCGAAUGGGACCCA [G1U U69A] | 0.332
59 | GGCCGGCAUGGUCCCAGCCUCCUCGAUGGCGCCGGCUGGGCAACAUUCCGAGGGGACCGUCCCCUCGGUAAUGGCGAAUGGGACCGA [C26A C86G] | 0.888
60 | GGCCGGCAUGGUCCCAGCCUCCUCGCUGGCGGCGGCUGGGCAACAUUCCGAGGGGACCGUCCCCUCGGUAAUGGCGAAUGGGACCCU [C32G A87U] | 0.135
61 | GGCCGGAAUGGACCCAGCCUCCUCGCUGGCGCCGGCUGGGCAACAUUCCGAGGGGACCGUCCCCUCGGUAAUGGCGAAUGGGACCCA [C7A U12A] | 0.0978
62 | GGCCGGCAUGGUCCCAGCCUCCUCGCUGGCGCCGACUGGGCAACAUUCCGAGGGGACCGUCCACUCGGUAAUGGCGAAUGGGACCCA [G35A C63A] | 0.332
63 | GGCCGGCAUGGUCCCAGCCUCCUCGCUGGCGCCGGCUGGGCAACAUUCCGAGGGGACCGUCCCCUCGGAAAUGGCGAAUUGGACCCA [U69A G80U] | 0.141
64 | GGCCGGCAUGGUCCCAGACUCCUCGCUGGCGCCGGCUGGGCAACAUUCCGAGGGGACCGUCCCCUCGGUAAUGUCGAAUGGGACCCA [C18A G74U] | 0.0528
